This is an account of results in publication PMC3268394 (The Journal of Biological Chemistry, 2011).

Test [1] deals with T1, HDAC6 ZnF-UBP domain (1109–1215), His tag cleaved (UniProt Q9UBN7 1109-1215).
T1 sequence: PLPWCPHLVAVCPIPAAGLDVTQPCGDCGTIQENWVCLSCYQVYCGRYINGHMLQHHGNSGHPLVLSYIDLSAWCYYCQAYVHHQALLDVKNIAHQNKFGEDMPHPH
Description: crystal structure.

For test [2], the target named is ubiquitin (UniProt P0CG48 1-76). In words: pull-down.

B1: ubiquitin C-terminal pentapeptide RLRGG (peptide)
peptide: RLRGG
For the molecule B1, in test [1], the binding result is “binds”.

B2: His-tagged UBP domain of USP5 (171–290) (domain or fragment)
chain: GEVRQVSKHAFSLKQLDNPARIPPCGWKCSKCDMRENLWLNLTDGSILCGRRYFDGSGGNNHAVEHYRETGYPLAVKLGTITPDGADVYSYDEDDMVLDPSLAEHLSHFGIDMLKMQKTD
For the molecule B2, in test [2], the binding result was “binds”.
